T1: human CD58 R44A (human, UniProt P19256 29-250, R44A)
T1 sequence (looked up): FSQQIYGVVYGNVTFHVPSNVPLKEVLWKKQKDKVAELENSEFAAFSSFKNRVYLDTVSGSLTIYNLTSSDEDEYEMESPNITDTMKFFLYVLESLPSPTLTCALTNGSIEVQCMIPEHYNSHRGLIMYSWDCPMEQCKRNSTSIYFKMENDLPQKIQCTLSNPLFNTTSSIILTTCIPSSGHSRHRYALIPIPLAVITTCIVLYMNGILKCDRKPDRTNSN

T2: human CD58 E76A (human, UniProt P19256 29-250, E76A)
T2 sequence (looked up): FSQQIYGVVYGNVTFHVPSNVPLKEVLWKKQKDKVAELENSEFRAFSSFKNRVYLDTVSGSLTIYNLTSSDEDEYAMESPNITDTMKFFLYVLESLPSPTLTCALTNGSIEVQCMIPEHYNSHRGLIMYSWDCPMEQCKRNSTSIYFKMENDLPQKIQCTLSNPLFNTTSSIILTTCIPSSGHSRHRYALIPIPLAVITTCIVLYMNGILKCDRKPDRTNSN

T3: human CD58 K87A (human, UniProt P19256 29-250, K87A)
T3 sequence (looked up): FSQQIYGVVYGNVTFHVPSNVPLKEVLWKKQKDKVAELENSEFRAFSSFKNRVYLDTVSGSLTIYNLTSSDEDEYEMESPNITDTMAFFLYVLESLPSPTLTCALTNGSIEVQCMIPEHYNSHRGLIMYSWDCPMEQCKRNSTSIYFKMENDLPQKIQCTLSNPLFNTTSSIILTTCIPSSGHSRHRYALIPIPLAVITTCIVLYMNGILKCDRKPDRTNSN

T4: human CD58 E25A (human, UniProt P19256 29-250, E25A)
T4 sequence (looked up): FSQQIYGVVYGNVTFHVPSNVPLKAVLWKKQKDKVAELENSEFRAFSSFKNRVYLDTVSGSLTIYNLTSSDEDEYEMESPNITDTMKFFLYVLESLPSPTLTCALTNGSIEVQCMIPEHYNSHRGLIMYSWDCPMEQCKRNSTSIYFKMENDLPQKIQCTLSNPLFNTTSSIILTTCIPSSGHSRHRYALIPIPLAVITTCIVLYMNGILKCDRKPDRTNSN

T5: human CD58 K30A (human, UniProt P19256 29-250, K30A)
T5 sequence (looked up): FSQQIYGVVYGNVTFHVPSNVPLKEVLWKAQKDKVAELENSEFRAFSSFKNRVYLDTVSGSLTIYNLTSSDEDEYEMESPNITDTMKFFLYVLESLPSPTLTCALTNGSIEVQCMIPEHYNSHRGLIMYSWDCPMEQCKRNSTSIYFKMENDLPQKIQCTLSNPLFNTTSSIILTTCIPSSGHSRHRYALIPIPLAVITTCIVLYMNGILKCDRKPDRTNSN

T6: human CD58 D33A (human, UniProt P19256 29-250, D33A)
T6 sequence (looked up): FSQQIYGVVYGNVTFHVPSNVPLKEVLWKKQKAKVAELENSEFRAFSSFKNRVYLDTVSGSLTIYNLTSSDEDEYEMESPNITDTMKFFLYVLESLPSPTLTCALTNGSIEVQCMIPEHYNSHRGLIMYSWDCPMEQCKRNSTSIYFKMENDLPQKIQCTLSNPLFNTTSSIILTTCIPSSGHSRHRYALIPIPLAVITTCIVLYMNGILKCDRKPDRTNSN

T7: human CD58 E37A (human, UniProt P19256 29-250, E37A)
T7 sequence (looked up): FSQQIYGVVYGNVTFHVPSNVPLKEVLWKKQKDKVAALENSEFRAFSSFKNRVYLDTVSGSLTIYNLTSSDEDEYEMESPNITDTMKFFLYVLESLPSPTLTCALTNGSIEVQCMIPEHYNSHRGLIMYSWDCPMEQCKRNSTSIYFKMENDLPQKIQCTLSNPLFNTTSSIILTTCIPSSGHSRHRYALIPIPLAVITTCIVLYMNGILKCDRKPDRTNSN


How the values were obtained:
Experiment in all cases: cell-cell adhesion assay
[1] = target: human CD58 K34A (human) (UniProt P19256)
[2] = target: T1, human CD58 R44A
[3] = target: T2, human CD58 E76A
[4] = target: T3, human CD58 K87A
[5] = target: T4, human CD58 E25A
[6] = target: T5, human CD58 K30A
[7] = target: T6, human CD58 D33A
[8] = target: T7, human CD58 E37A

Molecule | % binding relative to wtCD58 [1] | % binding relative to wtCD58 [2] | % binding relative to wtCD58 [3] | % binding relative to wtCD58 [4] | % binding relative to wtCD58 [5] | % binding relative to wtCD58 [6] | % binding relative to wtCD58 [7] | % binding relative to wtCD58 [8]
human CD2 (from UniProt P06729 25-351) (receptor) | 1% | – | – | – | – | – | – | –
human CD2 (receptor, human (endogenous in Jurkat), UniProt P06729 25-351, looked up) KEITNALETWGALGQDINLDIPSFQMSDDIDDIKWEKTSDKKKIAQFRKEKETFKEKDTYKLFKNGTLKIKHLKTDDQDIYKVSIYDTKGKNVLEKIFDLKIQERVSKPKISWTCINTTLTCEVMNGTDPELNLYQDGKHLKLSQRVITHKWTTSLSAKFKCTAGNKVSKESSVEPVSCPEKGLDIYLIIGICGGGSLLMVFVALLVFYITKRKKQRSRRNDEELETRAHRVATEERGRKPHQIPASTPQNPATSQHPPPPPGHRSQAPSHRPPPPGHRVQHQPQKRPPAPSGTQVHQQKGPPLPRPRVQPKPPHGAAENSLSPSSN | – | 79% | 107% | < 30% | 68% | 64% | 26% | < 30%

From article PMC2191747 (The Journal of Experimental Medicine, 1994)
